According to IntAct's records for PubMed 23615222:

B1: Thioredoxin H1 (Arabidopsis thaliana (Mouse-ear cress)), P29448 (parent)
chain: MASEEGQVIACHTVETWNEQLQKANESKTLVVVDFTASWCGPCRFIAPFFADLAKKLPNVLFLKVDTDELKSVASDWAIQAMPTFMFLKEGKILDKVVGAKKDELQSTIAKHLA

Variants of: B1
Settings: with cdpkl_arath CPK21, Q9ZSA2
Sequence of cdpkl_arath CPK21, Q9ZSA2 (Q9ZSA2 whole entry): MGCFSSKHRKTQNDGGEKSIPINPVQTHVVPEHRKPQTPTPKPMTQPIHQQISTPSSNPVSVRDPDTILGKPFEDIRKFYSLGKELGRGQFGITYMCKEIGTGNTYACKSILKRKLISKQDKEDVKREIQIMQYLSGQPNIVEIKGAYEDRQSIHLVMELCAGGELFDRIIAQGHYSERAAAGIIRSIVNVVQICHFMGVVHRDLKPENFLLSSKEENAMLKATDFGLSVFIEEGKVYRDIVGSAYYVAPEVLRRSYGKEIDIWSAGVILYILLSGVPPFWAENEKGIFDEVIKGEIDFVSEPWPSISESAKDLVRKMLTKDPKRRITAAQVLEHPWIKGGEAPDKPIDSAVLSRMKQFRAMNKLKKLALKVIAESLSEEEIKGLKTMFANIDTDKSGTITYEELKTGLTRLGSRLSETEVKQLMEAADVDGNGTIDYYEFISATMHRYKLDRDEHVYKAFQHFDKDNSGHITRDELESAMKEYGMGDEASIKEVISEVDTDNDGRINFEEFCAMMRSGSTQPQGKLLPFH

Variant | effect of a mutation on the interaction
C43S | increasing interaction
